Laboratory results from the supplement of paper PMC12042874.
± gives the uncertainty stated by the source.

Test: amyloid nucleation score (Sup35N fusion, yeast selection) (log enrichment); library NNK1; higher = more nucleation; inactive = no reads after selection
How it was run: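 Output and input plasmid inserts were sequenced by Illumina after psi-negative yeast carrying Sup35N fused to peptides of 20 random codons had been induced 24 hours with 100 μM copper sulfate and grown 7 days at 30°C on medium lacking adenine and uracil. The nucleation score is the DiMSum log enrichment of output over input reads, centred on the mode score of non-aggregating sequences. Sequences with under 100 input reads were excluded.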

Substance	amyloid nucleation score
NKTMGMKSYFLGNIFYMYGW	5.215 ± 0.046
NKTVVLDHPHVCFPGSRSHL	inactive
NKYNSYKKNYPKRIDWSGLN	-0.983 ± 1.4
NKYQLHMILKGFQGSAYWSV	-0.453 ± 0.81
NLAGI	0.716 ± 0.88
NLCRSNTRVQNAKKCAL	-0.168 ± 0.26
NLFLMLVDLVSLGTTI	2.08 ± 0.51
NLGMALRSCMTSTHSVSMW	0.433 ± 0.47
NLHVQGVTRNGC	3.84 ± 0.076
NLIWMVKYCYIIFRIPTTCL	1.77 ± 0.42
NLKCF	0.905 ± 0.47
NLLFAVMLVFSRVQVVFNNG	-0.355 ± 0.25
NLQVKFVVYIMPLQKD	0.747 ± 0.44
NLSCIHGLYYGSRLVSGLYQ	0.15 ± 0.71
NLSTSMSRREIMQQHQHRRL	0.594 ± 0.64
NLTANVLKVMSRHCNGFWIF	0.29 ± 0.46
NLTWRGSRDTFECYVDGA	-0.186 ± 0.47
NLYVNN	-0.623 ± 1
NMFAWV	inactive
NMGIKVLSKYNVIYYSAGTP	8.343 ± 0.048
NMINLMGTKVDMYCRRVRGI	-1.53 ± 0.84
NMQTYGGLKE	0.116 ± 0.71

Substance	amyloid nucleation score
NMTVITVVSWLCFVRRTHNA	-1.06 ± 0.82
NNGGASVGFWRMPCHWTRMH	-0.371 ± 0.59
NNGKSIPFPGGARKVSLGSG	0.087 ± 0.26
NNIFGLSIYKYCQGRYCNCS	8.226 ± 0.055
NNKGSLSPGNLDTSDESEFS	0.652 ± 0.29
NNLWCSFS	-0.577 ± 0.43
NNMLILFTCGFYYKVYSPVQ	3.18 ± 0.17
NNMYTNVRVLKGRCLWVY	0.376 ± 0.28
NNQSTGWCETN	inactive
NNVNEVWWA	0.249 ± 0.69
NPAEL	0.222 ± 0.54
NPCWTVYLEFL	0.186 ± 0.27
NPGNTN	0.17 ± 0.55
NPNMVSRPCRVGRRPFDVGL	-0.022 ± 0.45
NPRVNNYRVNGWKRGIRDRA	0.66 ± 0.35
NPSIPCPQAACNMWY	0.819 ± 0.36
NPVRMMRNRLVLGKNCAPRG	-0.024 ± 0.28
NPWLSNFSCK	0.244 ± 0.47
NQANQSQPCTDSFILRNGVV	inactive
NQTSLAILSRSSQGHGTKVY	0.623 ± 0.95
NRACRMMQWS	-0.441 ± 1.2
NRCRDCREVYIKFPTWAWSW	-0.253 ± 0.43

Substance	amyloid nucleation score
NRCYMVYKFTV	-0.01 ± 0.33
NRHRRVPFRISTALLPVKLQ	0.632 ± 0.5
NRIPHGSRRSRAISKVRDA	0.728 ± 0.97
NRSRWPIHGFLIANKSPLQF	0.486 ± 0.38
NRVHKADHVTYY	inactive
NSAVYSCL	inactive
NSCRCYFLLGELDLNAFNSV	1.74 ± 0.55
NSDLWIGVCAVLSGLMTIIG	0.509 ± 0.64
NSEISRGGVMGVCAVLLMSF	0.273 ± 0.97
NSFRWDLTLLLWARINVDSF	1.49 ± 0.7
NSGGVWSHYFVVVMRYL	0.083 ± 0.46
NSLKCVRSIVKRYSACHRV	0.387 ± 0.5
NSPGCKCRSKGLISINST	inactive
NSPKYLKLSCSTLLTALLGR	1.16 ± 0.28
NSRGT	-0.28 ± 0.34
NSRSLFFYDSYVAGWYN	0.542 ± 0.31
NSSLLDISLYDNLVQGSDWP	-0.249 ± 0.57
NSSVGVESHIFSIVDKMNTW	inactive
NSWSFGPSGTQFGLSLFYGL	-0.979 ± 2.7
NTGREVFIRIMCPL	-0.212 ± 0.73
NTLKNCCLYIAVRCNAP	-0.974 ± 1.2
NTTAWPVYFYLWFRKTGWPL	-0.371 ± 0.78

Substance	amyloid nucleation score
NTYDHMTYNRGFRSM	inactive
NVGRSAICVRSCRMSLVFDG	0.11 ± 0.35
NVLVGFI	-0.851 ± 0.56
NVNETT	-0.547 ± 1.6
NVSLRFGSYPGVNVGSAFMV	-0.109 ± 0.53
NVSSLQDFRVMFWIFECTTR	0.052 ± 0.44
NVTCSVISNGNLSEFDVFVI	0.122 ± 0.75
NVVSF	-0.466 ± 1.2
NVYDMFIKFGVGVASSVSAC	-1.48 ± 1.9
NWEWAFRCPLWCLWDYRSTM	0.751 ± 0.57
NWGWGGEFRRNMFRIVS	inactive
NWNFIRRSARVWSR	-1.7 ± 1.2
NWTIHVDNSGHVIRINTHYW	6.72 ± 0.074
NWVRFIHFYYNGTRLWAEFV	-0.915 ± 0.74
NYCGLGSMYL	1.1 ± 0.8
NYFNL	0.21 ± 0.46
NYIVKAFSVVCFTSDTSSFR	6.08 ± 0.096
NYLGLLSEAVSRGVQLGDAT	inactive
NYRIRAWGNNYGHQGATCLR	inactive
NYRISAYCDSHVRRLPEYMF	0.175 ± 0.59
